# T1: human FcγRIIa type H extracellular domain with C-terminal His tag (human, UniProt P12318 34-217)
# T1 construct: extracellular domain; also called FcγRIIaH; FcgRIIaH
# T1 sequence (looked up): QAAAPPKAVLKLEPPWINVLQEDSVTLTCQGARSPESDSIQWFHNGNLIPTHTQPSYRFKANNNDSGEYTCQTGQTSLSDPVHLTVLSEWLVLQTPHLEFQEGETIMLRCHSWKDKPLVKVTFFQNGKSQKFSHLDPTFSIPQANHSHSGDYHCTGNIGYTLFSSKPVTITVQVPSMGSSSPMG
# T2: human FcγRIIb extracellular domain with C-terminal His tag (human, UniProt P31994 43-217)
# T2 construct: extracellular domain; also called FcgRIIb
# T2 sequence (looked up): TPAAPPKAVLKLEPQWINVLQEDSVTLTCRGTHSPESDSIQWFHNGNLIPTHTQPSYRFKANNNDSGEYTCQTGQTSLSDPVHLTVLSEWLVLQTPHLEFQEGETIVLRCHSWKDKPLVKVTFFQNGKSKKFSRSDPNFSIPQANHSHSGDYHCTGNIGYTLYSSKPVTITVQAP
# T3: human FcγRIIa type R extracellular domain with C-terminal His tag (human, UniProt P12318 34-217)
# T3 construct: extracellular domain; also called FcγRIIaR; FcgRIIaR
# T3 sequence (looked up): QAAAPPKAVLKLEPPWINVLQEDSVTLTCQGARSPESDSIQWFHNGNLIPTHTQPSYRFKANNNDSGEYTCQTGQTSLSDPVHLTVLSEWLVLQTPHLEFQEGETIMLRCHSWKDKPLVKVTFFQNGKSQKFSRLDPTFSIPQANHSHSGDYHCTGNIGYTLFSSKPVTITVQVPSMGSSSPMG
# What was measured:
# Test in all cases: SPR (Biacore), binding amount
# [1] = biological target: T4, human FcγRIa extracellular domain with C-terminal His tag (human, UniProt P12314 16-292)
# T4 construct: extracellular domain; also called FcgRIa
# T4 sequence (P12314 16-292): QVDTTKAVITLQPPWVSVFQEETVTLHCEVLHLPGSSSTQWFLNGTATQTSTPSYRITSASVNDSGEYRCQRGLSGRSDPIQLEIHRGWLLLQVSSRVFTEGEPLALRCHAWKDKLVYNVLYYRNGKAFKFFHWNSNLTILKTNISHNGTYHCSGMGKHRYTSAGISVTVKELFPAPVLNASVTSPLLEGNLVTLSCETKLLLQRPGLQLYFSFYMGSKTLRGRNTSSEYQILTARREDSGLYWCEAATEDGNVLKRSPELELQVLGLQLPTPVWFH
# [2] = biological target: T5, human FcγRIIIa type V extracellular domain with C-terminal His tag (human, UniProt P08637 17-208)
# T5 construct: extracellular domain; also called FcγRIIIaV; FcgRIIIaV
# T5 sequence (P08637 17-208 F176V): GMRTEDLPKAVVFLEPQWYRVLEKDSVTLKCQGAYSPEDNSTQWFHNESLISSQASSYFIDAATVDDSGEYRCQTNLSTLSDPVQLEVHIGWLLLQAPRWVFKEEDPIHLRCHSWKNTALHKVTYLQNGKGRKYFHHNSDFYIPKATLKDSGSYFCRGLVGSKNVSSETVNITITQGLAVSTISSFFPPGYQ
# [3] = biological target: T1, human FcγRIIa type H extracellular …
# [4] = biological target: T2, human FcγRIIb extracellular domain with …
# [5] = biological target: T3, human FcγRIIa type R extracellular …
binder,measurement,setting,value
"IL6R-BP198/IL6R-L (antibody, human IgG1, kappa, EU numbering; alterations on IL6R-B3; copies: 2 + 2) heavy: QVQLQESGPGLVKPSETLSLTCAVSGHSISHDHAWSWVRQPPGEGLEWIGFISYSGITNYNPSLQGRVTISRDNSKNTLYLQMNSLRAEDTAVYYCARSLARTTAMDYWGEGTLVTVSSASTKGPSVFPLAPSSKSTSGGTAALGCLVKDYFPEPVTVSWNSGALTSGVHTFPAVLQSSGLYSLSSVVTVPSSSLGTQTYICNVNHKPSNTKVDKKVEPKSCDKTHTCPPCPAPDYLGGDSVFLFPPKPKDTLMISRTPEVTCVVVDVSDEDGEVKFNWYVDGVEVHNAKTKPREEQYNSTYRVVSVLTVLHQDWLNGKEYKCKVSNAALPKPIEKTISKAKGQPREPQVYTLPPSRDELTKNQVSLTCLVKGFYPSDIAVEWESNGQPENNYKTTPPVLDSDGSFFLYSKLTVDKSRWQQGNVFSCSVMHEALHNHYTQESLSLSP light: not shown",relative binding activity,[1],104 % of IL6R-BF648/IL6R-L
same,relative binding activity,[2],157 % of IL6R-BF648/IL6R-L
same,relative binding activity,[3],188 % of IL6R-BF648/IL6R-L
same,relative binding activity,[4],164 % of IL6R-BF648/IL6R-L
same,relative binding activity,[5],449 % of IL6R-BF648/IL6R-L

# Source: patent publication US20220389118A1 (Chugai, published 2022)
